In the supplement of paper PMC12764529:
± gives the half width of the 95% confidence interval.

Key:
[1] = folding stability dG unfold from chymotrypsin proteolysis; higher = more stable
Procedure: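 Folding stability of de novo designed mini-proteins (<80 aa, no Cys; designed by TrROS, TrMRF, ProteinMPNN and the joint model) was measured by cDNA display proteolysis with trypsin and chymotrypsin. Each protease was used at 11 concentrations in a threefold dilution series plus a no-protease condition. K50 was inferred by Bayesian fitting of sequencing counts, and dG unfold was derived against a sequence-predicted unfolded-state K50 (Tsuboyama et al. method). Sequences shown include variable-length N-terminal GS-type padding (SAGGSAGG...) inside a display construct carrying a PA tag. Rows were kept only if the AF2 dimer inter-PAE was >15, to exclude likely homo-oligomers.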

[2] = folding stability dG unfold (combined trypsin and chymotrypsin); higher = more stable
Outline: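 Bayesian fitting of sequencing counts gave K50 for each design. Unfolding free energy followed by setting this against a sequence-predicted unfolded-state K50 and a shared folded-state K50, either per protease or with trypsin and chymotrypsin combined. The designs, under 80 residues and lacking cysteine, were digested in a PA-tagged cDNA display format at 11 threefold-diluted protease concentrations and without protease, and only those with AlphaFold2 dimer inter-PAE above 15 were kept.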

| Sequence | folding stability dG unfold [1] [kcal/mol] | folding stability dG unfold [2] [kcal/mol] |
| --- | --- | --- |
| SAGGSAGGSKPIPIKIKARNKDDGKKREEDIQIPPEALKNGKFDKEQIKKELRKLGPRVEIEISAGGSAGGS [r20_221_TrROS] | -0.216 ± 0.18 | < -1 |
| SAGGSAGGSASLVVVTTKPPNGPETVELTTDYPPDVRRVTTDPKTGATSEVVVLPADAVLPSAGGSAGGSAG [r3_356_JUSTAS] | 0.873 ± 0.06 | 0.295 ± 0.2 |
| RTISIDEIREKLGMDPDDLKNMPMEEIADEIRDELPPGRAKGVKISPNEDDGMWTITVKYKNGRPVEITIDS [r1_340_TrROS] | 0.671 ± 0.16 | 0.156 ± 0.37 |
| SAGPITPEEIQEKVTKAMEEEGMDNVNVDVQRDEDNGRITIQVEVQMPPGNKEKAQRIQDAIQDELGIKSAG [r5_9_TrROS] | 0.89 ± 0.062 | 0.277 ± 0.099 |
| SAGVKIERDPNPGWMEITYPIDNKPIQIEIPMDPNNGQMKVKVEYGDGKPKEYTIPGGSIEEIIEDLFSAGG [r19_159_TrROS] | 0.111 ± 0.23 | < -1 |
| SAGGSAGGMREIEHEIPNPNGRNIKIKIEYDPDQGWHPVEIENPGNGKKKTYPFDSADEVLDQLSAGGSAGG [r6_465_TrROS] | 0.598 ± 0.031 | 0.0475 ± 0.17 |
| SAGGSMKLKPGDEIWVPENMPEDAIKDEIKEWADNFNIKGIDDIEPPKPGWHRIKVEWPNGRKLTISAGGSA [r2_168_TrROS] | -0.147 ± 0.17 | -0.748 ± 0.3 |
| SAGGSAGGSEEFVILEIPFERKFVVKDPEGGEEREFEFRPVIPLVLPPELAEKLLKSPYLQKKSAGGSAGGS [r12_1015_TrMRF] | 0.721 ± 0.26 | 0.416 ± 0.22 |
| SAGRRSLVLLAPVDDPARAPTAEELARELLALGGTPATRPRAEPLEDDTLRVTFEAPGVDVTVLVDLRASAG [r5_144_TrMRF] | 0.638 ± 0.12 | 0.138 ± 0.11 |
| SAGEYKVEEKDGKLYVTYPNGEKKEVEVKPAPPPVVTIKVKSVEELKALAEELNLEITEISEDTVVVKFSAG [r5_328_TrROS_Hall] | 0.0799 ± 0.38 | -0.643 ± 0.62 |
| SAGGPNFMFRVKMPHPRPKKDPEDGKEKWRPQRHEHTVPFPADDPEQALDELADNMPPNNFKITDITSAGGS [r16_459_TrROS] | 0.45 ± 0.22 | -0.0582 ± 0.18 |
| SAGATESETFALPGGEEVTVTTTYTPLPGDALRTTVTTWTTTLGPSGPAVTTATTTTTYPPELAAAGASAGG [r19_63_JUSTAS] | 0.0387 ± 0.14 | -0.807 ± 0.24 |
| SAGGSSYIVKATPAGGPSFEAEATLTSVSSEGDNFTANVEVTFDGKPVTLTFDGDKVGPVVIEPPESAGGSA [r2_319_TrMRF] | 0.558 ± 0.15 | -0.0521 ± 0.17 |
| SKTIYFPIPNDDPEEAVEWIADKLLEEHGHKIKDVEIPHKNGYYVRIEVDPNNPKIDIEVWPYDPDGEPLSA [r9_173_TrROS] | 0.728 ± 0.18 | 0.534 ± 0.52 |
| SAGGSAGGSAGGPPTTARITLPDGRTYTVPVPVDPTTGTVYVEDIRRAVAPNYTFTIELGSAGGSAGGSAGG [r7_492_TrMRF] | 0.981 ± 0.16 | 0.414 ± 0.14 |
| SAGGSAGGSAGGPERELTVPITTPDGSGKSISAELGEEELEKLIEENPEWKEAIIEARRESAGGSAGGSAGG [r7_637_JUSTAS] | 0.975 ± 0.059 | 0.483 ± 0.11 |
| SAGGFKIERERDPDNGIRKIEFRFPDNGYRVKATINPDNDKIHIWGPNPAIREALPELGITNVEVEPWSAGG [r13_511_TrROS] | -0.811 ± 0.78 | < -1 |
| SAGGSAGGSAGSMVEVTYEPDPATGGSRIVTTTRFPDRNTVTVTELDPNAGVPLETVEVESAGGSAGGSAGG [r11_676_JUSTAS] | -0.16 ± 0.029 | -0.433 ± 0.089 |
| SAGPAVAVAPIPALEARPDLKDALVRVVVSPLPDGRVAVDVRPVFVPKPVITPEEARELEELAEKLAASAGG [r19_313_TrMRF] | 0.297 ± 0.027 | -0.224 ± 0.13 |
| SAGGSAGGSAGGPDVTTSDSVSLERLPDDTIVLRRTTTVTPPTGPPVVTSTTTVLPPSTLSAGGSAGGSAGG [r17_312_JUSTAS] | -0.319 ± 0.41 | < -1 |
| SAGGSAGGSAGKKKVLILGGDAVATAKELKKLGEDVEVEVLESGEDLEEHLKNYDLVLSGSAGGSAGGSAGG [r17_225_TrMRF] | 0.344 ± 0.14 | 0.106 ± 0.27 |
| SAGGSGSIVIKSIEPRLRLERLPNGELREVKEVEVDIEVEVDPETAPEEEIEAVREEAEKLAEELSSAGGSA [r2_40_JUSTAS] | 0.713 ± 0.082 | 0.144 ± 0.21 |
| SAGGSAGGSAGGLHPDQEFAVRLDLDLDLRLGPGADLRVSDVRVGGVRVYDLRTGRWLDSAGGSAGGSAGGS [r10_248_TrMRF] | 0.445 ± 0.15 | -0.323 ± 0.25 |
